B1: PRIM1 (parent)
chain: CCSSADICPKCWTLMTMAIRIIDR
B2: FAM46D (parent)
chain: LELKFVSSLRRQFEFSVDSFQIVL

Variants of: B1
Assay: protein stability index of a GFP-peptide fusion (GPS, HEK-293T) (PSI 1-6); higher = more stable
Details: c terminus: a fixed tail appended
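Also: lentivirally expressed fusions sorted by FACS into six bins by GFP to DsRed ratio, PSI derived from sequencing read proportions per bin multiplied by bin number.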

Going from CCSSADICPKCWTLMTMAIRIINR [D23N] to CCSSADICPKCWTLMTMAIRIIPR [D23P], the protein stability index rises from 1.47 to 2.42.

Going from CCSSADICPKCWTLMTMAIRIIQR [D23Q] to CCSSADICPKCWTLMTMAIRIIRR [D23R], the protein stability index falls from 2.09 to 1.68.

Compared with CCSSADICPKCWTLMTMAIRIISR [D23S], CCSSADICPKCWTLMTMAIRIITR [D23T] is lower in protein stability index: 2.96 for the first, 1.82 for the second.

Compared with CCSSADICPKCWTLMTMAIRIIVR [D23V], CCSSADICPKCWTLMTMAIRIIWR [D23W] is lower in protein stability index: 2.31 for the first, 2.15 for the second.

Compared with CCSSADICPKCWTLMTMAIRIIYR [D23Y], CCSSADICPKCWTLMTMAIRIIDA [R24A] is higher in protein stability index: 1.61 for the first, 1.89 for the second.

Compared with CCSSADICPKCWTLMTMAIRIIDC [R24C], CCSSADICPKCWTLMTMAIRIIDD [R24D] is lower in protein stability index: 2.19 for the first, 2.09 for the second.

Compared with CCSSADICPKCWTLMTMAIRIIDF [R24F], CCSSADICPKCWTLMTMAIRIIDG [R24G] is higher in protein stability index: 1.68 for the first, 1.81 for the second.

Compared with CCSSADICPKCWTLMTMAIRIIDH [R24H], CCSSADICPKCWTLMTMAIRIIDI [R24I] is lower in protein stability index: 1.95 for the first, 1.69 for the second.

Compared with CCSSADICPKCWTLMTMAIRIIDK [R24K], CCSSADICPKCWTLMTMAIRIIDL [R24L] is higher in protein stability index: 1.25 for the first, 1.91 for the second.

Compared with CCSSADICPKCWTLMTMAIRIIDM [R24M], CCSSADICPKCWTLMTMAIRIIDN [R24N] is lower in protein stability index: 2.12 for the first, 1.8 for the second.

First: CCSSADICPKCWTLMTMAIRIIDP [R24P]
Second: CCSSADICPKCWTLMTMAIRIIDQ [R24Q]
The protein stability index of the first is higher: 3.32 for the first, 1.52 for the second.

First: CCSSADICPKCWTLMTMAIRIIDT [R24T]
Second: CCSSADICPKCWTLMTMAIRIIDV [R24V]
The protein stability index of the first is lower: 1.97 for the first, 2.46 for the second.

First: CCSSADICPKCWTLMTMAIRIIDW [R24W]
Second: CCSSADICPKCWTLMTMAIRIIDY [R24Y]
The protein stability index of the first is higher: 2.19 for the first, 1.78 for the second.

Variants of: B2
Assay: as above
Details: c terminus: a fixed tail appended

Compared with AELKFVSSLRRQFEFSVDSFQIVL [L1A], DELKFVSSLRRQFEFSVDSFQIVL [L1D] is lower in protein stability index: 2.03 for the first, 1.9 for the second.

Going from EELKFVSSLRRQFEFSVDSFQIVL [L1E] to FELKFVSSLRRQFEFSVDSFQIVL [L1F], the protein stability index rises from 2.65 to 3.04.

First: GELKFVSSLRRQFEFSVDSFQIVL [L1G]
Second: HELKFVSSLRRQFEFSVDSFQIVL [L1H]
The protein stability index of the first is lower: 2.02 for the first, 2.49 for the second.

Compared with IELKFVSSLRRQFEFSVDSFQIVL [L1I], KELKFVSSLRRQFEFSVDSFQIVL [L1K] is lower in protein stability index: 2.7 for the first, 2.36 for the second.

Going from MELKFVSSLRRQFEFSVDSFQIVL [L1M] to NELKFVSSLRRQFEFSVDSFQIVL [L1N], the protein stability index falls from 4.32 to 2.9.

Compared with PELKFVSSLRRQFEFSVDSFQIVL [L1P], QELKFVSSLRRQFEFSVDSFQIVL [L1Q] is lower in protein stability index: 2.78 for the first, 2.32 for the second.

First: RELKFVSSLRRQFEFSVDSFQIVL [L1R]
Second: SELKFVSSLRRQFEFSVDSFQIVL [L1S]
The protein stability index of the first is lower: 2.33 for the first, 2.57 for the second.

Compared with TELKFVSSLRRQFEFSVDSFQIVL [L1T], VELKFVSSLRRQFEFSVDSFQIVL [L1V] is lower in protein stability index: 2.9 for the first, 2.79 for the second.

Going from WELKFVSSLRRQFEFSVDSFQIVL [L1W] to YELKFVSSLRRQFEFSVDSFQIVL [L1Y], the protein stability index rises from 1.92 to 2.56.

Going from LALKFVSSLRRQFEFSVDSFQIVL [E2A] to LCLKFVSSLRRQFEFSVDSFQIVL [E2C], the protein stability index rises from 2.56 to 2.74.

First: LDLKFVSSLRRQFEFSVDSFQIVL [E2D]
Second: LFLKFVSSLRRQFEFSVDSFQIVL [E2F]
The protein stability index of the first is lower: 2.46 for the first, 2.6 for the second.

Going from LGLKFVSSLRRQFEFSVDSFQIVL [E2G] to LHLKFVSSLRRQFEFSVDSFQIVL [E2H], the protein stability index rises from 2.65 to 2.95.

Going from LILKFVSSLRRQFEFSVDSFQIVL [E2I] to LKLKFVSSLRRQFEFSVDSFQIVL [E2K], the protein stability index rises from 1.99 to 3.23.

First: LLLKFVSSLRRQFEFSVDSFQIVL [E2L]
Second: LMLKFVSSLRRQFEFSVDSFQIVL [E2M]
The protein stability index of the first is lower: 1.7 for the first, 2.57 for the second.

Compared with LNLKFVSSLRRQFEFSVDSFQIVL [E2N], LQLKFVSSLRRQFEFSVDSFQIVL [E2Q] is lower in protein stability index: 2.6 for the first, 2.48 for the second.

Going from LRLKFVSSLRRQFEFSVDSFQIVL [E2R] to LSLKFVSSLRRQFEFSVDSFQIVL [E2S], the protein stability index falls from 3.42 to 3.

Compared with LTLKFVSSLRRQFEFSVDSFQIVL [E2T], LVLKFVSSLRRQFEFSVDSFQIVL [E2V] is higher in protein stability index: 2.78 for the first, 3.32 for the second.

Compared with LWLKFVSSLRRQFEFSVDSFQIVL [E2W], LYLKFVSSLRRQFEFSVDSFQIVL [E2Y] is higher in protein stability index: 2.81 for the first, 3.04 for the second.

Going from LEAKFVSSLRRQFEFSVDSFQIVL [L3A] to LECKFVSSLRRQFEFSVDSFQIVL [L3C], the protein stability index falls from 3.39 to 2.84.

First: LEDKFVSSLRRQFEFSVDSFQIVL [L3D]
Second: LEEKFVSSLRRQFEFSVDSFQIVL [L3E]
The protein stability index of the first is higher: 3.2 for the first, 1.66 for the second.

Going from LEFKFVSSLRRQFEFSVDSFQIVL [L3F] to LEGKFVSSLRRQFEFSVDSFQIVL [L3G], the protein stability index falls from 2.43 to 2.11.

Compared with LEHKFVSSLRRQFEFSVDSFQIVL [L3H], LEIKFVSSLRRQFEFSVDSFQIVL [L3I] is higher in protein stability index: 1.82 for the first, 2.5 for the second.

Compared with LEKKFVSSLRRQFEFSVDSFQIVL [L3K], LENKFVSSLRRQFEFSVDSFQIVL [L3N] is lower in protein stability index: 3.37 for the first, 2.3 for the second.

First: LEPKFVSSLRRQFEFSVDSFQIVL [L3P]
Second: LEQKFVSSLRRQFEFSVDSFQIVL [L3Q]
The protein stability index of the first is lower: 1.62 for the first, 2.38 for the second.

First: LERKFVSSLRRQFEFSVDSFQIVL [L3R]
Second: LESKFVSSLRRQFEFSVDSFQIVL [L3S]
The protein stability index of the first is lower: 2.23 for the first, 3.84 for the second.

First: LETKFVSSLRRQFEFSVDSFQIVL [L3T]
Second: LEVKFVSSLRRQFEFSVDSFQIVL [L3V]
The protein stability index of the first is higher: 3.15 for the first, 3 for the second.

Compared with LEWKFVSSLRRQFEFSVDSFQIVL [L3W], LEYKFVSSLRRQFEFSVDSFQIVL [L3Y] is lower in protein stability index: 2.77 for the first, 2.2 for the second.

Compared with LELAFVSSLRRQFEFSVDSFQIVL [K4A], LELCFVSSLRRQFEFSVDSFQIVL [K4C] is higher in protein stability index: 2.28 for the first, 3.62 for the second.

Compared with LELDFVSSLRRQFEFSVDSFQIVL [K4D], LELEFVSSLRRQFEFSVDSFQIVL [K4E] is lower in protein stability index: 3.48 for the first, 2.38 for the second.

Going from LELFFVSSLRRQFEFSVDSFQIVL [K4F] to LELGFVSSLRRQFEFSVDSFQIVL [K4G], the protein stability index falls from 3.11 to 2.9.

Compared with LELHFVSSLRRQFEFSVDSFQIVL [K4H], LELIFVSSLRRQFEFSVDSFQIVL [K4I] is lower in protein stability index: 3.46 for the first, 2.9 for the second.

Compared with LELLFVSSLRRQFEFSVDSFQIVL [K4L], LELMFVSSLRRQFEFSVDSFQIVL [K4M] is higher in protein stability index: 3.25 for the first, 4.16 for the second.

Compared with LELNFVSSLRRQFEFSVDSFQIVL [K4N], LELPFVSSLRRQFEFSVDSFQIVL [K4P] is higher in protein stability index: 2.95 for the first, 3.77 for the second.

Compared with LELQFVSSLRRQFEFSVDSFQIVL [K4Q], LELRFVSSLRRQFEFSVDSFQIVL [K4R] is lower in protein stability index: 3.84 for the first, 3.25 for the second.

Reference: the supplement of paper PMC10567573
